Measured values: patent publication US8242083B2, “Kinase substrates” (PerkinElmer Health Sciences, Inc., priority 2008, dated 2012)

Legend:
Assay type in all cases: biochemical
[1] = biological target: DDR1 (Homo sapiens, UniProt Q08345); test: TR-FRET kinase assay, DDR1; conditions: Kinase Concentration 0.5 nM; 50 nM ULight-labeled substrate, 200 micromolar ATP, 2 hours
Description: (§1) TR-FRET kinase assays are performed under standardized conditions: various individual kinases are incubated with 50 nM of kinase substrate BRB1 labeled with the TR-FRET acceptor dye ULight (PerkinElmer) and 200 micromolar ATP in 10 μL of kinase assay buffer (50 mM HEPES pH7.5, 10 mM MgCl2, 3 mM MnCl2, 1 mM EGTA, 2 mM DTT and 0.01% Tween-20) for 2 hours at room temperature. Reactions are stopped with EDTA, and anti-phospho-tyrosine antibodies (clone PT66) labeled with the TR-FRET europium chelate donor dye are added to a final concentration of 2 nM in a final volume of 20 μL. The TR-FRET signal emitted at 665 nm is read one hour after the addition of antibodies using a TR-FRET plate reader such as the Envision® Multilabel Plate reader (PerkinElmer). The emitted signal at 665 nm is proportional to the extent of peptide phosphorylation, Control reactions indicative of background are performed excluding ATP from the reaction.
(§2) Assay conditions are identical to those used described for FIG. 1.

[2] = biological target: LTK (Homo sapiens, UniProt P29376); test: TR-FRET kinase assay, LTK; conditions: Kinase Concentration 1 nM; 50 nM ULight-labeled substrate, 200 micromolar ATP, 2 hours
Sequence of LTK (P29376 17-864, species assumed): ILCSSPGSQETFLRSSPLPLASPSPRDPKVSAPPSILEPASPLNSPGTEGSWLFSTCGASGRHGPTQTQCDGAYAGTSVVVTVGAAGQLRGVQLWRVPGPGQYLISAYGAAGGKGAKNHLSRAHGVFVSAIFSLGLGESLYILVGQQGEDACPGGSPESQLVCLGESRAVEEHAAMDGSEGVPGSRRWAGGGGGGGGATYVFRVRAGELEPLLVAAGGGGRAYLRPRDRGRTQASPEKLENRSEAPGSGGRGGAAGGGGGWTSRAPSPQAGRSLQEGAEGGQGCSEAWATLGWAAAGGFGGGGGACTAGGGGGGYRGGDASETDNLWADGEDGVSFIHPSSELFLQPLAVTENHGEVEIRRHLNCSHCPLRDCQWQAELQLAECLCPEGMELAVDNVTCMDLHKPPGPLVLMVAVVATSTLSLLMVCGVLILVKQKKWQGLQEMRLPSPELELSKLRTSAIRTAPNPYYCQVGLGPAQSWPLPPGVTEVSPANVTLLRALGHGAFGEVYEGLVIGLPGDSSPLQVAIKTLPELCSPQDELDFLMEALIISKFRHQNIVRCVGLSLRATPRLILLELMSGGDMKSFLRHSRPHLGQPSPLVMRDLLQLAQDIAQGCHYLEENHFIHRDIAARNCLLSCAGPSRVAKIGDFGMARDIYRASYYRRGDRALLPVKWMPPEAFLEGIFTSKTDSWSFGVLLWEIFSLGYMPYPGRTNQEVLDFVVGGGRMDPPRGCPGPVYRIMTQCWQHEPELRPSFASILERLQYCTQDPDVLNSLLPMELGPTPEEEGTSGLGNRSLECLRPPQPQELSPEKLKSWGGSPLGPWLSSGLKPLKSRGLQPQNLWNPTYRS
Description: as §1, §2

[3] = biological target: FAK (Homo sapiens, UniProt Q05397); test: TR-FRET kinase assay, FAK; conditions: Kinase Concentration 3 nM; 50 nM ULight-labeled substrate, 200 micromolar ATP, 2 hours
Sequence of FAK (Q05397 whole entry, species assumed): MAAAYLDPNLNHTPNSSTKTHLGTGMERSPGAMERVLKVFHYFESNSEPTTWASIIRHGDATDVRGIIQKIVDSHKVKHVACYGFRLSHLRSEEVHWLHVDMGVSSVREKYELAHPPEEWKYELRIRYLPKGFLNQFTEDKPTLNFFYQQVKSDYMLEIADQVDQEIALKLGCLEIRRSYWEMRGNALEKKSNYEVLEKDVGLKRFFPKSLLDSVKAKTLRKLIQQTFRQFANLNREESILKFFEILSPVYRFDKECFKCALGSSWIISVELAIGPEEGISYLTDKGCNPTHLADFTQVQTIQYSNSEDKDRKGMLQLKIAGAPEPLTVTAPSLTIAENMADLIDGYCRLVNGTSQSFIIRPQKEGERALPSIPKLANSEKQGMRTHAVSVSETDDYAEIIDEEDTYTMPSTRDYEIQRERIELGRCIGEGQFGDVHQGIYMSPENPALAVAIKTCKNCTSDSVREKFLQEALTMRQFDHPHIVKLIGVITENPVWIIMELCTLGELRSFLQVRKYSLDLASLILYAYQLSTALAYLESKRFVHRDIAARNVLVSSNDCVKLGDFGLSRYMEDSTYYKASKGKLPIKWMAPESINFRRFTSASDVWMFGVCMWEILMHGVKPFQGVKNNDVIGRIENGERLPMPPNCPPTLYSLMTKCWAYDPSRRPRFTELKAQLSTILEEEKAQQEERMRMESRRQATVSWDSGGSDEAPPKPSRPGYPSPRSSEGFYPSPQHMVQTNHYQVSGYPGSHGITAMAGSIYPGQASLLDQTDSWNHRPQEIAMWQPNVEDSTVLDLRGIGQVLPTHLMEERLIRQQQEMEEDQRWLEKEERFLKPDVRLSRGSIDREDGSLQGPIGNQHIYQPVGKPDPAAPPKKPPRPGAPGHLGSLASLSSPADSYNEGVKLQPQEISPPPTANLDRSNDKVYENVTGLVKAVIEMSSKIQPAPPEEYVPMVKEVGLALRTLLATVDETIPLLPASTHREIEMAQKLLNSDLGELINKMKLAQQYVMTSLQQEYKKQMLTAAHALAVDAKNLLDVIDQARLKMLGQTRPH
Description: as §1, §2

[4] = biological target: T1, EphA6 (Homo sapiens, UniProt Q9UF33); test: TR-FRET kinase assay, EphA6; conditions: Kinase Concentration 0.5 nM; 50 nM ULight-labeled substrate, 200 micromolar ATP, 2 hours
T1 sequence (Q9UF33 23-1036): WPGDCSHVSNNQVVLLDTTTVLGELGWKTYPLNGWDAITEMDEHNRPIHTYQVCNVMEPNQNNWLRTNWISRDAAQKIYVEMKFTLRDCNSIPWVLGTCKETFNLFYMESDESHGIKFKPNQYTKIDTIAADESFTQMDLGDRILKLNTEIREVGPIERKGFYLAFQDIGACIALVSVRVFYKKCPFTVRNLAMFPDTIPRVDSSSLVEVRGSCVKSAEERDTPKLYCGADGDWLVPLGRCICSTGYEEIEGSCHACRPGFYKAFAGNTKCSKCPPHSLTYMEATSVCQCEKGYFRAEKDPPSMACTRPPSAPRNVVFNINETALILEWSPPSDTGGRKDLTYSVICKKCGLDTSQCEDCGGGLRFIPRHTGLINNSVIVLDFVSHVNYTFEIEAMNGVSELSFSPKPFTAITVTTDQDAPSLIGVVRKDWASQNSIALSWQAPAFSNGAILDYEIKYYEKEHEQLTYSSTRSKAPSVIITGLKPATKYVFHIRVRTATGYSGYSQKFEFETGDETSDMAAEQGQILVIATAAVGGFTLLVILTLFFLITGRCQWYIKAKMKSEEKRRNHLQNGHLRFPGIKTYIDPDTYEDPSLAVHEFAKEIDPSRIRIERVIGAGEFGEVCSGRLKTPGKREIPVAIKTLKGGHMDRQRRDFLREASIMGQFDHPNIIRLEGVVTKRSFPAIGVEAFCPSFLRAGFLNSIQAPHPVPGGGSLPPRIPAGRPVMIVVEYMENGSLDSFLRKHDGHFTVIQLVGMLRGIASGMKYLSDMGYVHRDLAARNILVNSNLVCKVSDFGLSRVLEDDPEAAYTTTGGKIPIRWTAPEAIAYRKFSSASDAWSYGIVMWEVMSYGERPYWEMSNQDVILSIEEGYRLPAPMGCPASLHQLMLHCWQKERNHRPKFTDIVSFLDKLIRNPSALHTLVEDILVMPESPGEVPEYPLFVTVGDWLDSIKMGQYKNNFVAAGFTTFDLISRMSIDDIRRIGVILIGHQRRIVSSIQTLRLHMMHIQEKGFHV
Description: as §1, §2

[5] = biological target: ARG (Homo sapiens, UniProt P42684); test: TR-FRET kinase assay, ARG; conditions: Kinase Concentration 0.5 nM; 50 nM ULight-labeled substrate, 200 micromolar ATP, 2 hours
Sequence of ARG (P42684 whole entry): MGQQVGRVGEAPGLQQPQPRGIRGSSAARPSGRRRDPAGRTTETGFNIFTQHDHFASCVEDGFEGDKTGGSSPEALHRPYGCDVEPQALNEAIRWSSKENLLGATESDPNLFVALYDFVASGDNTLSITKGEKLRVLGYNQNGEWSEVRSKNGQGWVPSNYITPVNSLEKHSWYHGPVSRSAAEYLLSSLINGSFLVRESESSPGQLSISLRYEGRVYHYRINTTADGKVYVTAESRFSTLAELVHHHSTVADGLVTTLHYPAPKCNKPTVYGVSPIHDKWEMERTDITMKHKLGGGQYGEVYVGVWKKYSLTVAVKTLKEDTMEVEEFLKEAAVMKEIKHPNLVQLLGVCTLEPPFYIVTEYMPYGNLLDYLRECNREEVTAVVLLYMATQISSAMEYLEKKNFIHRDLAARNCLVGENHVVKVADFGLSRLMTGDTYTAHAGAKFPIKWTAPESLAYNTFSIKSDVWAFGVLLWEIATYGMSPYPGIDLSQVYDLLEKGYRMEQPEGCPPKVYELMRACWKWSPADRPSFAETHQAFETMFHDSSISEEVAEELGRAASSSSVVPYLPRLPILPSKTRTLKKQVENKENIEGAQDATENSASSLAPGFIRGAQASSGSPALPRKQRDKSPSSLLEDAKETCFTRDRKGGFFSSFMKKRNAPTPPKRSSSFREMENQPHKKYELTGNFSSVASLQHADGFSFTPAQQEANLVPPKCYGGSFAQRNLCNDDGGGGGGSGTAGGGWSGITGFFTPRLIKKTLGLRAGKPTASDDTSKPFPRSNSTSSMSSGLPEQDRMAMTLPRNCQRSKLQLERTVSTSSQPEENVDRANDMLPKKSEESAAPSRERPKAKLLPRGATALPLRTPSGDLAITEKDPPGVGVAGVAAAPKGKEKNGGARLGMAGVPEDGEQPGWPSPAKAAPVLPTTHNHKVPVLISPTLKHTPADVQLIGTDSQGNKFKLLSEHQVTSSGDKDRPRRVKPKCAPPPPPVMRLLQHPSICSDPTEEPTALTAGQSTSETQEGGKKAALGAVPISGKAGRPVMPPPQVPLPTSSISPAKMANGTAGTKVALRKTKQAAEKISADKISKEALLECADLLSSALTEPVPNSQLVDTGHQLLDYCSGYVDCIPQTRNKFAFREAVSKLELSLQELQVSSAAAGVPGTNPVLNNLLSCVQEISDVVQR
Description: as §1, §2

[6] = biological target: SRC (Homo sapiens, UniProt P12931); test: TR-FRET kinase assay, SRC; conditions: Kinase Concentration 0.5 nM; 50 nM ULight-labeled substrate, 200 micromolar ATP, 2 hours
Description: as §1, §2

[7] = biological target: EGFR (Homo sapiens, UniProt P00533); test: TR-FRET kinase assay, EGFR; conditions: Kinase Concentration 0.5 nM; 50 nM ULight-labeled substrate, 200 micromolar ATP, 2 hours
Description: as §1, §2

[8] = biological target: IRR (Homo sapiens, UniProt P14616); test: TR-FRET kinase assay, IRR; conditions: Kinase Concentration 0.5 nM; 50 nM ULight-labeled substrate, 200 micromolar ATP, 2 hours
Sequence of IRR (P14616 27-1297, species assumed): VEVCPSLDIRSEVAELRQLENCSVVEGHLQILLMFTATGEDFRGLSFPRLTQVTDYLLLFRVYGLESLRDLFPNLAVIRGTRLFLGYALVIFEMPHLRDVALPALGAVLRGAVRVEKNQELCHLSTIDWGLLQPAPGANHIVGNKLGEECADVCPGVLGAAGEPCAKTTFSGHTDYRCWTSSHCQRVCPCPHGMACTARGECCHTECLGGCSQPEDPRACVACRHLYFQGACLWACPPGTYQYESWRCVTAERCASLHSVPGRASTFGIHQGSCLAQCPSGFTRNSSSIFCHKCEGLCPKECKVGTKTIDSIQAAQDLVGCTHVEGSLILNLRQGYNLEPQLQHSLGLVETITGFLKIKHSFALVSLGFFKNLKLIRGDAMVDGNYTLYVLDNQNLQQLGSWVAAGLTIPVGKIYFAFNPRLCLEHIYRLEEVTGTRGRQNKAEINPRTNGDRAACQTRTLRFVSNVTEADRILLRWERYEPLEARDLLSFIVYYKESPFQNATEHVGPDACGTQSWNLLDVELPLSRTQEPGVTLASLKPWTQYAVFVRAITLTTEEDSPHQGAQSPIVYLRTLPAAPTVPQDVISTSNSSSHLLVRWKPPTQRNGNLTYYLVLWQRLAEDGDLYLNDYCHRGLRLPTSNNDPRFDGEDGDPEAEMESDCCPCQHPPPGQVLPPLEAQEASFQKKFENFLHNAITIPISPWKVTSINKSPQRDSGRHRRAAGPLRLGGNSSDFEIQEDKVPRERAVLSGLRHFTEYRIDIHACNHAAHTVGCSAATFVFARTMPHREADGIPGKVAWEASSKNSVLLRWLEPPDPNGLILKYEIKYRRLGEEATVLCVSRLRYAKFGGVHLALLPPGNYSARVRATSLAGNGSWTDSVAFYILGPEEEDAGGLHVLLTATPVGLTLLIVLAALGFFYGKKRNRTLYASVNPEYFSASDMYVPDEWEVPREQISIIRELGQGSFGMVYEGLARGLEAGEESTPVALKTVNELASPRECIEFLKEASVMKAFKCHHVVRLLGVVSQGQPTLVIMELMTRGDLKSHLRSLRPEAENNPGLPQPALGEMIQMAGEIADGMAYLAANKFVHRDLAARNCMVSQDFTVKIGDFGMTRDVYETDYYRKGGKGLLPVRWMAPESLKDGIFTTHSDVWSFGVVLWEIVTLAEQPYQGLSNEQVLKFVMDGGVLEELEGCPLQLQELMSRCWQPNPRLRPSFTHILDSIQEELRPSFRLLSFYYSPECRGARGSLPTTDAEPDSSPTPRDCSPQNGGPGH
Description: as §1, §2

[9] = biological target: T2, EphA3 (Homo sapiens, UniProt P29320); test: TR-FRET kinase assay, EphA3; conditions: Kinase Concentration 0.5 nM; 50 nM ULight-labeled substrate, 200 micromolar ATP, 2 hours
T2 sequence (P29320 21-983): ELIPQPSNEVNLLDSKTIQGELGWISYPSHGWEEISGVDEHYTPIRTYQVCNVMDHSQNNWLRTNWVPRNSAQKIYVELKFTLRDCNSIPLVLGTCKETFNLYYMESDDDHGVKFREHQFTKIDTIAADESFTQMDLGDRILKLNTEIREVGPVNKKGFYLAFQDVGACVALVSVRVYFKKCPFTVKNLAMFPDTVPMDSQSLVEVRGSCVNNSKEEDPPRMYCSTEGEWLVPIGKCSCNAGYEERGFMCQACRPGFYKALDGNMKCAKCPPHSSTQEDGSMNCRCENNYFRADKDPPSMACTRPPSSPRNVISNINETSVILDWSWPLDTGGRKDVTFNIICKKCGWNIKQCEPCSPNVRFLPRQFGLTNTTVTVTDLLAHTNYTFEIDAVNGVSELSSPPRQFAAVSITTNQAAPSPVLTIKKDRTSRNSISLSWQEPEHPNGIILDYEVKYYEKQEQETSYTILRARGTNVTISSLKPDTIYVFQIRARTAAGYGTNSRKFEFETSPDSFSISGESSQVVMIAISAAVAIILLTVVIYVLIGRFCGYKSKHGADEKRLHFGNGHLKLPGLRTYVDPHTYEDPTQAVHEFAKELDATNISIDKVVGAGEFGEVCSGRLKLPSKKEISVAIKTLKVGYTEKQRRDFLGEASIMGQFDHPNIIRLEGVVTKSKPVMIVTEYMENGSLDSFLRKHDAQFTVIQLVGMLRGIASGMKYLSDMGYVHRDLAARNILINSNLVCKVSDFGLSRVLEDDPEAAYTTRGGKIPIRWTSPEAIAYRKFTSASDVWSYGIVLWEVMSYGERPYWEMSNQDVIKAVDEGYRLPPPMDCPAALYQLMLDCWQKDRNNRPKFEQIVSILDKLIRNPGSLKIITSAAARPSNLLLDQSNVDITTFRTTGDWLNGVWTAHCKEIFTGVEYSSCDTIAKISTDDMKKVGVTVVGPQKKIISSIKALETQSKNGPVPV
Description: as §1, §2

[10] = biological target: FGFR4 (Homo sapiens, UniProt P22455); test: TR-FRET kinase assay, FGFR4; conditions: Kinase Concentration 3 nM; 50 nM ULight-labeled substrate, 200 micromolar ATP, 2 hours
Description: as §1, §2

In the case of “C AYE AYE AYE K EYA EYA EYA K AYA EYE R (CAYEAYEAYEKEYAEYAEYAKAYAEYER; tyrosine kinase substrate peptide) [BRB1]”, the “Signal to Noise ratio with BRB1 Peptide” value [1] is reported as 1.0, the “Signal to Noise ratio with BRB1 Peptide” value [2] is reported as 13.7 and the “Signal to Noise ratio with BRB1 Peptide” value [3] is reported as 1.7. For the same sequence, the “Signal to Noise ratio with BRB1 Peptide” value [4] was 5.4, the “Signal to Noise ratio with BRB1 Peptide” value [5] was 10.6 and the “Signal to Noise ratio with BRB1 Peptide” value [6] was 31.7. The “Signal to Noise ratio with BRB1 Peptide” value [7] was 10.0, the “Signal to Noise ratio with BRB1 Peptide” value [8] was 19.2 and the “Signal to Noise ratio with BRB1 Peptide” value [9] was 22.4. For the same sequence, the “Signal to Noise ratio with BRB1 Peptide” value [10] was 17.7.
